Results reported in the DeepSol protein solubility set.

assay: soluble on expression in E. coli; label from the status in PepcDB or PDB records

Sequence	soluble on expression in E. coli
LLLFFPLGLQQPLLLLLSPPFQHEIQRRKEEIKEEKKRKEMAKQERLEIASLSNQDHTSKKDPGGHRTAAILHGGSPDFVGNGKHRANSSGRSRRERQYSVCNSEDSPGSCEILYFNMGSPDQLMVHKGKCIGSDEQLGKLVYNALETATGGFVLLYEWVLQWQKKMGPFLTSQEKEKIDKCKKQIQGTETEFNSLVKLSHPNVVRYLAMNLKEQDDSIVVDILVEHISGVSLAAHLSHSGPIPVHQLRRYTAQLLSGLDYLHSNSVVHKVLSASNVLVDAEGTVKITDYSISKRLADICKEDVFEQTRVRFSDNALPYKTGKKGDVWRLGLLLLSLSQGQECGEYPVTIPSDLPADFQDFLKKCVCLDDKERWSPQQLLKHSFINPQPKMPLVEQSPEDSGGQDYVETVIPSNRLPSAAFFSETQRQFSRYFIEFEELQLLGKGAFGAVIKVQNKLDGCCYAVKRIPINPASRQFRRIKGEVTLLSRLHHENIVRYYNAWIERHERPAGPGTPPPDSGPLAKDDRAARGQPASDTDGLDSVEAAAPPPILSSSVEWSTSGERSASARFPATGPGSSDDEDDDEDEHGGVFSQSFLPASDSESDIIFDNEDENSKSQNQDEDCNEKNGCHESEPSVTTEAVHYLYIQMEYCEKSTLRDTIDQGLYRDTVRLWRLFREILDGLAYIHEKGMIHRDLKPVNIFLDSDDHVKIGDFGLATDHLAFSADSKQDDQTGDLIKSDPSGHLTGMVGTALYVSPEVQGSTKSAYNQKVDLFSLGIIFFEMSYHPMVTASERIFVLNQLRDPTSPKFPEDFDDGEHAKQKSVISWLLNHDPAKRPTATELLKSELLPPPQMEESELHEVLHHTLTNVDGKAYRTMMAQIFSQRISPAIDYTYDSDILKGNFSIRTAKMQQHVCETIIRIFKRHGAVQLCTPLLLPRNRQIYEHNEAALFMDHSGMLVMLPFDLRIPFARYVARNNILNLKRYCIERVFRPRKLDRFHPKELLECAFDIVTSTTNSFLPTAEIIYTIYEIIQEFPALQERNYSIYLNHTMLLKAILLHCGIPEDKLSQVYIILYDAVTEKLTRREVEAKFCNLSLSSNSLCRLYKFIEQKGDLQDLMPTINSLIKQKTGIAQLVKYGLKDLEEVVGLLKKLGIKLQVLINLGLVYKVQQHNGIIFQFVAFIKRRQRAVPEILAAGGRYDLLIPQFRGPQALGPVPTAIGVSIAIDKISAAVLNMEESVTISSCDLLVVSVGQMSMSRAINLTQKLWTAGITAEIMYDWSQSQEELQEYCRHHEITYVALVSDKEGSHVKVKSFEKERQTEKRVLETELVDHVLQKLRTKVTDERNGREASDNLAVQNLKGSFSNASGLFEIHGATVVPIVSVLAPEKLSASTRRRYETQVQTRLQTSLANLHQKSSEIEILAVDLPKETILQFLSLEWDADEQAFNTTVKQLLSRLPKQRYLKLVCDEIYNIKVEKKVSVLFLYSYRDDYYRILF	soluble
MSLTPVISAYNWVPPPARGLVRDLRIRWALEELGRPYAVETVLHQDKTAYRAKQPFGQVPAYDDGEVQLFESGAIVLHIAEQDERLLPRDPAARARAIGWMFCALNTLEVPLLQLAELNIFSAGQAWTEGARPKVERWVRQRLGQLAARLGDKTYLDGETFTAGDLLVADVLRQAPDAMLAETPTLVAYRDRCTARPAFQKALAAQLADLNGPPPPGWGEGHHHHHH	soluble
MGSDKIHHHHHHMTYSKQSEWREIQSYLPKKYHFTDNYHPTEEWWNWKGHEVHLDCFRNEKAPVKVILLHGVGTNGRQMSMILGGPLSKDGFETIAIDMPTYGVTKVKKGSVVKYDDWVDLACDYIDYEQQRDDRPIVLYGLSAGGMETYHVAAKNKKVKGIIGMTFLDQKNQQVRDETAKNLVMSRVGIPMAGIACNIGLENFKMKMSTASKMSALCNNEKVMEIFNRDKTSAANKASMRFLDSYGNYQPAMEPEDFDVCPILLTQPEQDKWTPLHLSTPFLNKIKKVDVKIVMLENGGHYPVEQPALDQMHDAIVEFIYKVTK	not soluble
MLTLLMCGGKGTRLGRGEKPLFEVCGMKLIDHSLLQYKDFDVIAITSPHTPATESYLAEKGVEVYRAAGKGYIEDYSEACRELAINEPVIVASADIVYIRDIAFDIVDAYMKTIKPALTVVMEGEPVGVNIIDSLLINTWQEEEIYSIEKDSVVNVNTVADVERAERLWTTMRKERGWQRDLEHHHHHH	soluble
MESVESAARDYRETLAELRNNNKTQINLLTILADDFKKAAPQIVEVIERHLTTCSPSQKLLVMYVCDSILKNVKKPNDYDALFARKIVSMFEHAFRQGDERIRTSLYRIRVTWASTTLFMPSKLYELDMKINKLDPNWPISNPQTGRALRDDPQVMAPSQSRPAGNATSPAASTSTNRVFVNPKFIGSSTPGAASASKTVVEKTKSPGTVNKEKQVKKEPKQDPLDKLLPSSSASKTSSSPAGLKRKSAPSEHPNAPIRKKPQQPPKPQTAIDEDLRSISLTKKPPVPSAQDQDFRPKTLKPTSVIGSHAFAPVAAPIRPMIPVPPPVSVAPFVPAPPLSSAPPFQHPQQHHPQLPPPPVHQGMGRGYHHNSPPQDPAPIVPVQAPPPQQHLPAPENVYSSEQPKLDVPANNRIFVDGKAYEVMFVDDTAVIERGGAPHRIYFAGPPRNLVIDGIPHLLQFDTPTQIDILGSKHMVKFGAPSRELYIGGHPFKGQFGGPPIIATINGRRHEIRLTGSAPEVRIEPEPAYHLTHFLHKMREEKKIEIASEKPEKKEDWLSYLKNLRTRNILPAPARSPSSPRNQTPPPANLPIPGMNNAGQRGGYHNRHQPQQNARWGGANKQQNIPPPPSDPSPIGSGVEKRSAPPAAITDFNIRLLQIRYDSVVDALITKRADACKFCGMRLDDSQGKSKEWQDHMDWHVKQNLARHGSNNSAAVPYRQWYPSTSTWLTPRASDETNEQEADKPEEPLPGVASSGVKTKECSVCGEKFDEYYDDDEETWRLRDTVNVHGKIVHSACASDAARSLDNSSFFNDSDIKKEEPFD	not soluble
MSKKKQDVSIVRSSAAEYLTFIAAMGDQSQSVEMRYEDENIWLTQKMMASLYDVTVPAINQHLKRIFDDGELLPEAVLKDYLITAADGKQYRTKHYNLQAIISVGFKINNVRAVQFRKWAGQIVKDYTIQGWTMDVERLKKGHLFTDEYFDRQLEYIREIRLSERKFYQKVTDLYATAFDYDKDALTTREFFALVQNKLHWAVHRHTAAELIVSRADAGRTNMGLTHWAAAPQGKIIKSDVSIAKNYLNVQEMEYLERIVSIYLDFAELQAMRKIPMSMQDWARRLDGFLEFNGNEILMGPGKVSQEQAKLHAESEFEQYRIVQDRLFQSDFDRLLLQLESKNKEEGQ	not soluble
PEREAVALVGTRRASPWALAFARRLARELAEAGLWVVSGLARGIDREAHLGALEAGGRTLGVLGSALDRVYPPENRPLAQRMDLLSEFPFGTGPKPEFFPRRNRLIAGLCRAVVVVEAPLDSGALITARHALELGKEVLAVPGRPTDERSLGANRLIQDGAYPVLSAEDVLSYLGMSARP	not soluble
GSSAKRKQEEKHLKMLRDMTGLPHNRKCFDCDQRGPTYVNMTVGSFVCTSCSGSLRGLNPPHRVKSISMTTFTQQEIEFLQKHGNEVCKQIWLGLFDDRSSAIPDFRDPQKVKEFLQEKYEKKRWYVPPEQAKVVASVHA	soluble
MGHHHHHHSHQKGRYTELVEEKYKLFGELYKTFTKGGLICCSIESPNQEEQEVETDWGLLKGHTYTMTDIRKIRLGERLVEVFSAEKVYMVRLRNPLGRQEWSGPWSEISEEWQQLTASDRKNLGLVMSDDGEFWMSLEDFCRNFHKLNVCRNVNNPIFGR	not soluble
MGSDKIHHHHHHMAYVPNPVNIGVVYTENAAVLVDSGLDESVPRKISRLLQKPPLYLINTHSHADHCGGNAFLKKRFSTRVFAPKMEKEIIENTVFEPFYLYGAYPPNELRNKFLMAEPSAVDEVIEEGTITIESVDLEIVPLSGHSTNQIGVAVDGVLFCADAVFSEETLRKHRIFVIYNVEKFLETLDFLEKTSYSYYVPSHGEVTRDIGELVEKNRKAVENIINAVLEITVNPLSTDELMKQLFDRFEITLENLTQYILYRSTVHAYLSFLLDRKEIEREFRNNVLVWRRC	not soluble
MECFRSRIITIYLKRLKYSPLLWRNAKRGTRSSYMWLYVSICCGDFQFWKLSGTPSSPTCKTHSCGFIFWTNTHLLGDQLRYTIMDTIGMYLIIKQRLRNIHKNDPRLFQYVFENGHPLPYNR	not soluble
